Data on 1 molecule can be found in PMC10781284, “Fluorescence Super-Resolution Imaging Chip for Gene Silencing Exosomes”.

For the data set, the target named is PD-L1 (on HeLa exosomes) (human, UniProt Q9NZQ7 19-290). The experiment in a line: fluorescence colocalization on captured exosomes (AF647/PKH26); 1 nM aptamer; exosomes captured by CD63 aptamer; microfluidic channel, PBS (10 mM, pH 7.4) washes, 2% BSA block at room temperature; exosomes in culture medium; binding buffer of the aptamer not stated. The note with it: protein: native; label: 5' Alexa Fluor 647.
Chain of PD-L1 (on HeLa exosomes) (Q9NZQ7 19-290): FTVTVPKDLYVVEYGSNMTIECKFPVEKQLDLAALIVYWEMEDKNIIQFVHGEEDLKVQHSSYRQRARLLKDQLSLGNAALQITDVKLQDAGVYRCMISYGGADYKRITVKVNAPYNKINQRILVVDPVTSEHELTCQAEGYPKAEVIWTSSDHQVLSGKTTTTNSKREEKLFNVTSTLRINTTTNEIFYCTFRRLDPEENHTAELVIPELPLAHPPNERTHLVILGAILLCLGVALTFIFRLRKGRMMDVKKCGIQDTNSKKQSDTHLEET

Turning to TACAGGTTCTGGGGGGTGGGTGGGGAACCTGTT (ssDNA) [PD-L1 aptamer (PD-L1 adaptor strand)], the binding result is “binds”.
